Consider one molecule from patent US20250205169A1 (TIDAL THERAPEUTICS, published 2025).

This experiment addresses T1, CD206 on M2 macrophages derived from primary human PBMC (human (macrophages derived from primary …, UniProt P22897 19-1456)).
T1 sequence (looked up): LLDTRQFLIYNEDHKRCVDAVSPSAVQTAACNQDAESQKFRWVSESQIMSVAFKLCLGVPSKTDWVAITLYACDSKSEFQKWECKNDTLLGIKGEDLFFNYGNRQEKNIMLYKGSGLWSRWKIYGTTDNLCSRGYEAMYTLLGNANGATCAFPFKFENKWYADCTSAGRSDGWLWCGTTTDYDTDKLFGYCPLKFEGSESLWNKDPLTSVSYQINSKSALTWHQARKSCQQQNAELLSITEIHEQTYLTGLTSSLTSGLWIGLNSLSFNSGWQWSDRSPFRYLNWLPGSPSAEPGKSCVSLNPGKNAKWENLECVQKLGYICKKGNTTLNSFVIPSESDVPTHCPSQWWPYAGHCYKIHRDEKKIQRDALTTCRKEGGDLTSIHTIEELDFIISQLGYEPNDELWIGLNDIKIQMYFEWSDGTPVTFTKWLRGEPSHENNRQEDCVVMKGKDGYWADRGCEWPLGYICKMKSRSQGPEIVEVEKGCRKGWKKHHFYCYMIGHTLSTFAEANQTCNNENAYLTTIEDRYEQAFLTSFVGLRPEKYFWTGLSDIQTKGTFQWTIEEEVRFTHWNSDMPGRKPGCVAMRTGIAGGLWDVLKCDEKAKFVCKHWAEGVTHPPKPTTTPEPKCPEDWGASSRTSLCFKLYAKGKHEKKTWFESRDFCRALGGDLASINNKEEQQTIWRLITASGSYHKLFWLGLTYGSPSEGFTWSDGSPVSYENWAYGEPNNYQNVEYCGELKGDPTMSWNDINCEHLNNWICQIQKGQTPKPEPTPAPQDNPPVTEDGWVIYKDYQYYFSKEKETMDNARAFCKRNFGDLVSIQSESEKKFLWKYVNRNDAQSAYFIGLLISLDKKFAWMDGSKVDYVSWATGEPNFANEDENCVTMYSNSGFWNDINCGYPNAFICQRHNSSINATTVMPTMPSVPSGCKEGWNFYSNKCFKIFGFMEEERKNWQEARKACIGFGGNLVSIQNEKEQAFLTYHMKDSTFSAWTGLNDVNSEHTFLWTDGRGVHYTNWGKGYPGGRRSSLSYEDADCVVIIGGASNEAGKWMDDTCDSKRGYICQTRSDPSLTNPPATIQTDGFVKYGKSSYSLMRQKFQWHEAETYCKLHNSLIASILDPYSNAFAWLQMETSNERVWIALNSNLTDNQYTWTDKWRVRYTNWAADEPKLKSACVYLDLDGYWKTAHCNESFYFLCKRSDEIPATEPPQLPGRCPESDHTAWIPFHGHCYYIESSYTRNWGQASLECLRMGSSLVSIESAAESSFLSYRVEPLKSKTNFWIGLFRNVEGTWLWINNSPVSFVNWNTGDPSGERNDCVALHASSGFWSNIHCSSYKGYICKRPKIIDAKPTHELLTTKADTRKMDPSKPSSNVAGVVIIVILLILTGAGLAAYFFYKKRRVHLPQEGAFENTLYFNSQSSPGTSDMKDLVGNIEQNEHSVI
The experiment in a line: cell-based or functional assay.

B1: anti-CD206 VHH targeting moiety (aCD206 VHH), as DSPE-PEG2k-anti-CD206 VHH conjugate inserted into LNPs (VHH)
VHH: QVQLQESGGGLVQAGGSLRLSCAASGFTDDDYDIGWFRQAPGKEREGVSCISSSDGSTYYADSVKGRFTISSDNAKNTVYLQMNSLKPEDTAVYYCAADFFRWDSGSYYVRGCRHATYDYWGQGTQVTVSS
modifications: DSPE-PEG(2k)-maleimide covalently coupled to the thiol of a C-terminal cysteine residue
Turning to B1, the “GFP protein expression (MFI of transfected macrophages), fold difference between non-targeted and aCD206 targeted LNPs; Lipid 19A” value worked out at 11 fold; the “GFP protein expression (MFI of transfected macrophages), fold difference between non-targeted and aCD206 targeted LNPs; Lipids 15 and 46” value stood at 2 fold.
